Residue numbers refer to the chain shown, from its start. In names and notes the source's numbering stands.
B1: TBC1D20 with a 6xHIS N-terminal tag (bacterially expressed, pDEST-17) (protein)
chain: MALRSAQGDGPTSGHWDGGAEKADFNAKRKKKVAEIHQALNSDPTDVAALRRMAISEGGLLTDEIRRKVWPKLLNVNANDPPPISGKNLRQMSKDYQQVLLDVRRSLRRFPPGMPEEQREGLQEELIDIILLILERNPQLHYYQGYHDIVVTFLLVVGERLATSLVEKLSTHHLRDFMDPTMDNTKHILNYLMPIIDQVNPELHDFMQSAEVGTIFALSWLITWFGHVLSDFRHVVRLYDFFLACHPLMPIYFAAVIVLYREQEVLDCDCDMASVHHLLSQIPQDLPYETLISRAGDLFVQFPPSELAREAAAQQQAERTAASTFKDFELASAQQRPDMVLRQRFRGLLRPEDRTKDVLTKPRTNRFVKLAVMGLTVALGAAALAVVKSALEWAPKFQLQLFP
B2: mutant TBC1D20 (R66A, R105A), 6xHIS N-terminal tag, bacterially expressed (protein)
chain: B1 chain with R66A, R105A

Key:
[1] = molecular target: other Rabs and Arfs of the panel (27 mammalian Rabs and several different ARFs were tested)
[2] = molecular target: Rab1 GTPase (GTP-loaded, purified)

Protein	catalytic efficiency relative to the intrinsic rate constant for GTP hydrolysis [1]	catalytic efficiency (kcat/Km) of GAP-accelerated GTP hydrolysis [2]	kinetics of Rab1 GTP hydrolysis (GAP assay) [2]
B1	Note that only Rab1 displays significant activation by TBC1D20	Activation of Rab1GTP hydrolysis by TBC1D20 has an apparent catalytic efficiency (kcat/Km) of 360 M^-1s^-1	–
B2	–	–	the GTPase activating activity of TBC1D20 on Rab1 was abolished when these conserved arginine residues were mutated to alanine
